The results in this text go back to PMC9110426, “Cooperative regulation of PBI1 and MAPKs controls WRKY45 transcription factor in rice immunity”.

The target of the series is T1, Myc-WRKY45 (Oryza sativa (rice), UniProt Q5W6D6 1-326).
T1 sequence: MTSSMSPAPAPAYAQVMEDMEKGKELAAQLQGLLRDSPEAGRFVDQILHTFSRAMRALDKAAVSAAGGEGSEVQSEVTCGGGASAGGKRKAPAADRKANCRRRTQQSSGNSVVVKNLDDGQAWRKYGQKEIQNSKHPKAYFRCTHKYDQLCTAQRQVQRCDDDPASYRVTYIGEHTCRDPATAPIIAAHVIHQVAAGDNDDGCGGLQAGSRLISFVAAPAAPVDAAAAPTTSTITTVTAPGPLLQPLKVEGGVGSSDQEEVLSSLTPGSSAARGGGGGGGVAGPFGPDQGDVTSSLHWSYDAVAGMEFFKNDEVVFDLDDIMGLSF
Put plainly: EMSA; 10 uM ZnCl2; poly(dI-dC); suppressed by excess unlabeled probe (40-fold in Methods, 50-fold in Supplementary Fig. 10c); 25 mM HEPES-KOH pH 7.6, 40 mM KCl, 0.1% Nonidet P-40, 10 uM ZnCl2, 1 mg/mL BSA, 10% glycerol, 1 mM DTT, 0.15 ug poly(dI-dC); 25 min at room temperature; 6% PAGE in Tris-borate at 4 C. The following applies: protein: ivt; tags: Myc; blunt. Background: A gel shift assay detects complexes by their altered migration in electrophoresis.

B1: DFA promoter W-box probe (dsDNA)
DNA 1: AGTTGGCAAAAGCTAAGTACAAGTCATTGTGTGGTCAATTGATCGACTGATCTGTTGCTC
DNA 2: GAGCAACAGATCAGTCGATCAATTGACCACACAATGACTTGTACTTAGCTTTTGCCAACT
For the molecule B1, the binding result was “binds”.
